# Source: PMC9694023
# T1: endogenous IRF7 of HEK293 cells (human (endogenous in HEK293)), Q92985
# T1 chain: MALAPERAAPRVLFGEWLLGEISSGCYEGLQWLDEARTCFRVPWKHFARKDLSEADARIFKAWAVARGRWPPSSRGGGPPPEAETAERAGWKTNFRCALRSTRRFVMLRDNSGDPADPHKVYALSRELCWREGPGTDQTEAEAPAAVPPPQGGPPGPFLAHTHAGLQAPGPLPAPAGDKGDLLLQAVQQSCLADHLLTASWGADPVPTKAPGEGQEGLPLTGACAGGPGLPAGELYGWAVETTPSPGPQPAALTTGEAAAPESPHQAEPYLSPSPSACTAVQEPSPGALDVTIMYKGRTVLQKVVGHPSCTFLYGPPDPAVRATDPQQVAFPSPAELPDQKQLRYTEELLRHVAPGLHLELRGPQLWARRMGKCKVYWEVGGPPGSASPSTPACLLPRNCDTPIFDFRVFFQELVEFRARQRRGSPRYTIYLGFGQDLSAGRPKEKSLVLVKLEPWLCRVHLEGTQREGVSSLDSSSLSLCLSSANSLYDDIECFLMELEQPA
# B1: endogenous IRF7 of HEK293 cells, Q92985 1-503 (natural protein)
# chain: MALAPERAAPRVLFGEWLLGEISSGCYEGLQWLDEARTCFRVPWKHFARKDLSEADARIFKAWAVARGRWPPSSRGGGPPPEAETAERAGWKTNFRCALRSTRRFVMLRDNSGDPADPHKVYALSRELCWREGPGTDQTEAEAPAAVPPPQGGPPGPFLAHTHAGLQAPGPLPAPAGDKGDLLLQAVQQSCLADHLLTASWGADPVPTKAPGEGQEGLPLTGACAGGPGLPAGELYGWAVETTPSPGPQPAALTTGEAAAPESPHQAEPYLSPSPSACTAVQEPSPGALDVTIMYKGRTVLQKVVGHPSCTFLYGPPDPAVRATDPQQVAFPSPAELPDQKQLRYTEELLRHVAPGLHLELRGPQLWARRMGKCKVYWEVGGPPGSASPSTPACLLPRNCDTPIFDFRVFFQELVEFRARQRRGSPRYTIYLGFGQDLSAGRPKEKSLVLVKLEPWLCRVHLEGTQREGVSSLDSSSLSLCLSSANSLYDDIECFLMELEQPA
# Molecular target: T1, endogenous IRF7 of HEK293 cells (human …)
# Experiment: native gel or EMSA
# Conditions: remark: other sources report otherwise
binder,measurement,value
B1,stoichiometry N,2
